According to the Immune Epitope Database (IEDB):
Values belong to the sequence of their own block, whether it stands above or below them.

Columns and labels:
[1] = target: HLA-A*69:01; experiment: IEDB peptide-MHC binding, purified MHC/direct/fluorescence; filed as Kd, often an IC50 or EC50 that approximates it; ≥ and ≤ were set here for values at or beyond the usual limits of such assays; details: source organism: Mycobacterium tuberculosis
[2] = target: HLA-C*08:02; experiment: as above
[3] = target: HLA-C*15:02; experiment: as above; details: source organism: Corynebacterium glutamicum ATCC 13032
[4] = target: HLA-A*68:23; experiment: IEDB peptide-MHC binding, purified MHC/competitive/fluorescence; filed as Kd, often an IC50 or EC50 that approximates it; ≥ and ≤ were set here for values at or beyond the usual limits of such assays; details: source organism: Corynebacterium glutamicum ATCC 13032
[5] = target: HLA-B*15:42; experiment: as above
[6] = target: HLA-B*45:06; experiment: as above
[7] = target: HLA-B*83:01; experiment: as above
[8] = target: HLA-C*06:02; experiment: as above; details: source organism: Corynebacterium glutamicum ATCC 13032
[9] = target: HLA-A*01:01; experiment: as above; details: source organism: Rattus norvegicus
[10] = target: HLA-A*29:02; experiment: as above; details: source organism: Rattus norvegicus
[11] = target: HLA-A*80:01; experiment: as above; details: source organism: Rattus norvegicus
[12] = target: HLA-C*04:01; experiment: as above; details: source organism: Rattus norvegicus
[13] = target: HLA-C*14:02; experiment: as above
[14] = target: HLA-A*02:03; experiment: IEDB peptide-MHC binding, purified MHC/direct/fluorescence; filed as Kd, often an IC50 or EC50 that approximates it; ≥ and ≤ were set here for values at or beyond the usual limits of such assays; details: source organism: Mycobacterium tuberculosis str. Haarlem
[15] = target: HLA-C*05:01; experiment: as above; details: source organism: Mycobacterium tuberculosis variant bovis BCG str. Pasteur 1173P2
[16] = target: HLA-A*32:15; experiment: IEDB peptide-MHC binding, purified MHC/competitive/fluorescence; filed as Kd, often an IC50 or EC50 that approximates it; ≥ and ≤ were set here for values at or beyond the usual limits of such assays; details: source organism: Mycobacterium tuberculosis variant bovis BCG str. Pasteur 1173P2
[17] = target: HLA-B*46:01; experiment: as above; details: source organism: Mycobacterium tuberculosis variant bovis BCG str. Pasteur 1173P2
[18] = target: HLA-A*01:01; experiment: IEDB peptide-MHC binding, purified MHC/competitive/fluorescence; ≥ and ≤ were set here for values at or beyond the usual limits of such assays; details: source organism: Homo sapiens
[19] = target: HLA-A*02:01; experiment: as above; details: source organism: Homo sapiens
[20] = target: HLA-A*03:01; experiment: as above; details: source organism: Homo sapiens
[21] = target: HLA-A*11:01; experiment: as above; details: source organism: Homo sapiens
[22] = target: HLA-A*24:02; experiment: as above; details: source organism: Homo sapiens
[23] = target: HLA-A*25:01; experiment: as above; details: source organism: Homo sapiens
[24] = target: HLA-A*29:02; experiment: as above; details: source organism: Homo sapiens
[25] = target: HLA-A*31:01; experiment: as above; details: source organism: Homo sapiens
[26] = target: HLA-A*68:02; experiment: as above; details: source organism: Homo sapiens
[27] = target: HLA-B*07:02; experiment: as above; details: source organism: Homo sapiens
[28] = target: HLA-B*08:01; experiment: as above; details: source organism: Homo sapiens
[29] = target: HLA-B*14:02; experiment: as above; details: source organism: Homo sapiens
[30] = target: HLA-B*18:01; experiment: as above; details: source organism: Homo sapiens
[31] = target: HLA-B*35:01; experiment: as above; details: source organism: Homo sapiens
[32] = target: HLA-B*37:01; experiment: as above; details: source organism: Homo sapiens
[33] = target: HLA-B*40:02; experiment: as above; details: source organism: Homo sapiens
[34] = target: HLA-B*44:03; experiment: as above; details: source organism: Homo sapiens
[35] = target: HLA-B*51:01; experiment: as above; details: source organism: Homo sapiens
[36] = target: HLA-B*53:01; experiment: as above; details: source organism: Homo sapiens
[37] = target: HLA-B*58:01; experiment: as above; details: source organism: Homo sapiens
[38] = target: HLA-C*14:02; experiment: IEDB peptide-MHC binding, purified MHC/direct/fluorescence; filed as Kd, often an IC50 or EC50 that approximates it; ≥ and ≤ were set here for values at or beyond the usual limits of such assays; details: source organism: Homo sapiens
[39] = source organism: Corynebacterium glutamicum ATCC 13032
[40] = source organism: Rattus norvegicus
[41] = source organism: Mycobacterium tuberculosis variant bovis BCG str. Pasteur 1173P2

Sequence: RIFPATHYV
Kd [1]: 18.8 nM | Kd [2, 39]: ≥ 20000 nM | Kd [3]: 17 nM | Kd [4]: 197 nM | Kd [5, 39]: ≥ 5000 nM | Kd [6, 39]: ≥ 5000 nM | Kd [7, 39]: ≥ 5000 nM | Kd [8]: 35.7 nM

Sequence: YYRYPTGESY
Kd [9]: ≥ 20000 nM | Kd [10]: ≤ 0.1 nM | Kd [11]: 1460 nM | Kd [5, 40]: ≥ 5000 nM | Kd [6, 40]: ≥ 5000 nM | Kd [7, 40]: ≥ 5000 nM | Kd [12]: ≥ 5000 nM | Kd [13, 40]: ≤ 0.1 nM

Sequence: FMFDYIPPV
Kd [14]: ≤ 1 nM | Kd [1]: 1.3 nM | Kd [15]: ≥ 20000 nM | Kd [2, 41]: 368 nM | Kd [16]: 203 nM | Kd [5, 41]: 3860 nM | Kd [6, 41]: ≥ 5000 nM | Kd [17]: 10.1 nM | Kd [7, 41]: ≥ 5000 nM | Kd [13, 41]: 5.7 nM

IC50 [18]: ≥ 20000 nM | IC50 [19]: ≥ 20000 nM | IC50 [20]: ≥ 20000 nM | IC50 [21]: ≥ 20000 nM | IC50 [22]: ≥ 20000 nM | IC50 [23]: ≥ 20000 nM | IC50 [24]: ≥ 20000 nM | IC50 [25]: ≥ 20000 nM | IC50 [26]: 224 nM | IC50 [27]: 112 nM | IC50 [28]: 1080 nM | IC50 [29]: ≥ 20000 nM | IC50 [30]: 422 nM | IC50 [31]: 8.5 nM | IC50 [32]: ≥ 20000 nM | IC50 [33]: 734 nM | IC50 [34]: ≥ 20000 nM | IC50 [35]: 685 nM | IC50 [36]: 221 nM | IC50 [37]: ≥ 20000 nM | Kd [38]: 792 nM
Sequence: FPHTELANL
